According to paper PMC5805711 (Scientific Reports, 2018):

Legend:
[1] = target: T1, wild-type ubiquitin (Ub^WT) (UniProt P0CG48 1-76); assay: NMR titration; 15N-labeled Ub variant titrated with unlabeled UBA; amide CSPs in 1H-15N spectra, global fit to a single-site binding model; 23 °C, 20 mM sodium phosphate pH 6.8, 0.02% NaN3, 7% D2O; details: both partners purified
T1 construct: ubiquitin, the cut product of a ubiquitin precursor; last residue G76; Uniformly 15N-labelled for NMR; also called WT Ub; source: grown and purified using the standard Ub purification protocol; grown in 15N-enriched minimal media for NMR

[2] = target: T2, ubiquitin phosphorylated at serine-65 (pUb) (UniProt P0CG48 1-76, phosphoserine at 65); assay: as above; details: both partners purified
T2 construct: ubiquitin, the cut product of a ubiquitin precursor, phosphorylated at S65; Uniformly 15N-labelled for NMR; In solution two conformers in slow, pH-dependent exchange: native-like pUb^nat and alternate pUb^alt; both are this one molecule; also called S65 pUb; phosphorylated Ub

B1: ubiquitin-associated domain (UBA) of human ubiquilin-1/hPLIC1, V545Y (domain or fragment, UniProt Q9UMX0 545-586, looked up)
chain: YRFQQQLEQLSAMGFLNREANLQALIATGGDINAAIERLLGS
notes: UBA domain of human ubiquilin-1 (hPLIC1) with V545Y; V545Y was introduced to allow concentration determination by absorbance at 280 nm; Unlabelled in the titrations; also called ubiquilin-1 UBA
Kd [1]: 4.9 ± 1.2 µM
Kd [2]: 8 ± 2.5 µM
